Reference: patent US20260042865A1 (Amgen, published 2026)

T1: Human ASGR1 protein (R&D Systems cat #4394-AS/CF) (human, UniProt P07306 62-291)
T1 construct: Bought protein; also called huASGR1
T1 sequence (looked up): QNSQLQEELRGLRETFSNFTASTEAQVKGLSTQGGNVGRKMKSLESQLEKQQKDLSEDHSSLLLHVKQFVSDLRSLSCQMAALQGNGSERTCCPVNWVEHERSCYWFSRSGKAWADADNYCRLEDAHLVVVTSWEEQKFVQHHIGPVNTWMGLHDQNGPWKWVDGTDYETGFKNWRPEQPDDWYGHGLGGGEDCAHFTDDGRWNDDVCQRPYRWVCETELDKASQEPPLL

T2: Mouse ASGR1 protein (R&D Systems cat #2755-AS/CF) (mouse, UniProt P34927 61-284, limits assumed)
T2 construct: Bought protein; also called muASGR1
T2 sequence (looked up): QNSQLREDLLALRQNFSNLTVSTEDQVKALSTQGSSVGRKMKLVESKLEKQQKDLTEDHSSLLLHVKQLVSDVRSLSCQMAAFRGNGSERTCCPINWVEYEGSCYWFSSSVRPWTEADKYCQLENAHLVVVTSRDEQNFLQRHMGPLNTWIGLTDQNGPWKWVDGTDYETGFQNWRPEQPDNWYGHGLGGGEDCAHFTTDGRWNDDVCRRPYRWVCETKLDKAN


Columns and labels:
[1] = target: T1, Human ASGR1 protein (R&D Systems cat …); test: SPR (BIAcore 3000), human ASGR1 immobilized, pH 7.4 with 2 mM Ca2+
Description: (§1) The binding of anti-ASGR1 antibodies binding ASGR1 in a pH/Ca2+ dependent or independent manner was assessed by BIAcore. Equilibrium binding affinities of the interaction between (i) mouse or human ASGR1 and anti-ASGR1 antibodies; and (ii) mouse or human ASGR1 and bispecific scFv molecules of the present inventions were determined using BIAcore 3000. Mouse and human ASGR1 proteins were obtained from R&D-systems (cat #2755-AS/CF and 4394-AS/CF, respectively) and immobilized on CM5 chips using amine coupling chemistry to a density of ˜1500 RU. On each CM5 chip a reference flow cell is used which was coupled with coupling buffer only. Antibodies were injected over immobilized ASGR1 at a concentration range of 1000 nM-0.2 nM, with a two-fold serial dilution. To determine pH/Ca-sensitive binding, runs were performed using phosphate buffered saline (PBS) with 0.01% (v/v) Tween20 and 0.05% azide with either pH 7.4/2 mM calcium chloride or pH 6.0/2 μM calcium chloride. The chip was regenerated using 0.15 M NaCl, 0.1 M glycine pH 1.5 buffer between each injection cycles. Equilibrium dissociation constants were determined using 1:1 interaction model using BIAevaluation.

[2] = target: T2, Mouse ASGR1 protein (R&D Systems cat …); test: SPR (BIAcore 3000), mouse ASGR1 immobilized, pH 7.4 with 2 mM Ca2+
Description: as §1

[3] = target: T2, Mouse ASGR1 protein (R&D Systems cat …); test: SPR (BIAcore 3000), mouse ASGR1 immobilized, pH 7.4 with 2 mM Ca2+; pH 7.4 with 2 mM Ca2+; Table 3 experiment (comparison with bispecific scFv)
Description: as §1

[4] = target: T2, Mouse ASGR1 protein (R&D Systems cat …); test: SPR (BIAcore 3000), mouse ASGR1 immobilized, antibody analyte, pH 7.4, 2 mM CaCl2; pH 7.4, 2 mM CaCl2; Table 1 experiment
[5] = target: T2, Mouse ASGR1 protein (R&D Systems cat …); test: SPR (BIAcore 3000), mouse ASGR1 immobilized, antibody analyte, pH 7.4, 2 mM CaCl2
Description: (§2) Antibodies binding to ASGR1 in a pH/Ca2+-dependent manner were screened by employing surface plasmon resonance. Antibodies were screened either at pH 7.4 with 2 mM CaCl2 or at pH 6.0 with 2 μM CaCl2 to analyze the binding to ASGR1. KD values were determined by immobilizing receptor on the chip and antibodies as analytes.
(§3) Equilibrium binding affinities of the interaction between mouse ASGR1 and anti-ASGR1 antibodies were determined using BIAcore 3000. Mouse ASGR1 protein was obtained from R&D-systems (cat #2755-AS/CF) and immobilized on CM5 chips using amine coupling chemistry to a density of ˜1500 RU. On each CM5 chip a reference flow cell is used which was coupled with coupling buffer only. Antibodies were injected over immobilized ASGR1 at a concentration range of 1000 nM-0.2 nM, with a two-fold serial dilution. To determine pH/Ca-sensitive binding, runs were performed using phosphate buffered saline (PBS) with 0.01% (v/v) Tween20 and 0.05% azide with either pH 7.4/2 mM calcium chloride or pH 6.0/2 μM calcium chloride. The chip was regenerated using 0.15 M NaCl, 0.1 M glycine pH 1.5 buffer between each injection cycles. Equilibrium dissociation constants were determined using 1:1 interaction model using BIAevaluation.

[6] = target: T2, Mouse ASGR1 protein (R&D Systems cat …); test: SPR (BIAcore 3000), mouse ASGR1 immobilized, antibody analyte, pH 6, 2 uM CaCl2
Description: as §2, §3

Kd [1] [µM] | Kd [2] [µM] | Kd [3] [µM] | Kd [4] [µM] | Kd [5] [µM] | Kd [6] [µM] | Binder
0.023 | 0.0783 |  |  |  |  | Catabolic bispecific scFv molecule (binds ASGR1 in a catabolic manner and Ig in a non-catabolic manner) (bispecific antibody, Single chain: anti-IgG scFv, SG4S linker, catabolic anti-ASGR1 scFv, C-terminal 6xHis; also called CAT bispecific scFv molecule; CAT-bispecific scFv molecule) scFv: ELQLQQSGAELVRPGASVKLSCTTSGFNVKDTYIHWVRQRPEQGLEWIGRIDPANGNTKYDPKFQDRATITTDTSSITAYLQLSSLTSEDTAVYYCARNYGSNYDPMDYWGQGTSLTVSSGGGGSGGGGSGGGGSDILLTQSPAILSVSPGERVSFSCRASQNIDTNIHWYQRRTNDSPRLLIKYASESISGIPSRFSGSGSGTDFTLSINSVESEDIADYYCQQSDTWPWTFGGGTKLEIKRSGGGGSQVQLVESGGGVVQPGRSLRLSCAASGFTFSSYGMHWVRQAPGKGLEWVAVIWYDGSNKYYADSVKGRFTISRDNSKNTLYLQMNSLRAEDTAVYYCARDSSPYGMDVWGQGTTVTVSSGGGGSGGGGSGGGGSDIQMTQSPSSVSASVGDRVTITCRASQGISSWLAWYQQKPGKAPKLLIYGASSLQSGVPSRFSASGSGTDFTLTISSLQPEDFATYYCQQSDSFPRTFGQGTKVEIKRHHHHHH
0.004 |  | 0.0121 | 0.02 |  |  | Catabolic anti-ASGR1 antibody (antibody, human IgG1, kappa, N297G, V domains shown, also called CAT-WT; CAT mAb) VH: QVQLVESGGGVVQPGRSLRLSCAASGFTFSSYGMHWVRQAPGKGLEWVAVIWYDGSNKYYADSVKGRFTISRDNSKNTLYLQMNSLRAEDTAVYYCARDSSPYGMDVWGQGTTVTVSS VL: DIQMTQSPSSVSASVGDRVTITCRASQGISSWLAWYQQKPGKAPKLLIYGASSLQSGVPSRFSASGSGTDFTLTISSLQPEDFATYYCQQSDSFPRTFGQGTKVEIKR
 |  |  |  | 0.006 | 0.0055 | Non-catabolic anti-ASGR1 antibody (antibody, human IgG1, kappa, N297G, V domains shown, also called Non-CAT-WT; non-CAT mAb) VH: EVQLVESGGGLVQPGRSLKLSCAASGFTFSDYNMAWVRQAPKKGLEWVATIIYDGGSTYYRHSVKGRFTISRDNAKSTHSLQMDSLRSEDTATYYCARQTYFGSRDYFDYWGQGVMVTVSS VL: DIQMTQSPTSLSASLGETVSIECLTSEDIYNNLAWYQQKPGKSPQLLISYASNFQDGVPSRFSGSGSGTQYSLKINSLESEDAATYFCLQDSEYPPTFGGGTKLELKR
